Data on 2 molecules can be found in patent US20160237160A1 (Bayer, published 2016).

In assay [1] the target is T1, TWEAKR (TNFRSF12A, FN14), human, on tumor cell lines (human, UniProt Q9NP84 28-129). Put plainly: cell-based or functional assay.
Assay [2] addresses T1, TWEAKR (TNFRSF12A, FN14), human, on …. The assay can be described thus: cell-based or functional assay. This is another data set of the same source.
Assay [3] shares this target. Put plainly: FACS, A375 cells, 10 ug/ml. Background: Flow cytometry measures light scatter and fluorescence of single cells or particles in a stream.
Protocol: (§1) To determine the binding characteristics of the anti-TWEAKR antibodies on mouse and human cancer cell lines, binding was tested by flow cytometry to a panel of cell lines. […] Cells were suspended at approximately 10⁵ cells/well in FACS buffer (PBS without Ca/Mg, containing 3% FCS, Biochrom). Cells were centrifuged (250 g, 5 min, 4° C.) and supernatant discarded. Cells were resuspended in dilutions of the antibodies of interest (10 μg/ml in 80 μl if not indicated otherwise) in FACS buffer, and incubated on ice for 1 h. […] After incubation for 1 h on ice cells were again washed with cold FACS buffer, resuspended in 1000 FACS buffer and analyzed by flow cytometry using a FACS-Array (BD Biosciences). Results are calculated as Geo Mean of fluorescence detected by the antibody of interest subtracted by background fluorescence as measured by detection with the secondary antibody alone. Values are scored according to the following system: Geo Mean−Geo Mean of secondary antibody alone >10: +, >100: ++, >1000: +++, 10000: ++++, close to category border in ( ).
The target is the same in assay [4]. Put plainly: FACS, HT29 cells, 10 ug/ml.
Protocol: as §1
Assay [5] shares this target. Put plainly: FACS, WiDr cells, 10 ug/ml.
Assay [6] shares this target. The assay can be described thus: FACS, 786-O cells, 10 ug/ml.
Assay [7] shares this target. Put plainly: FACS, SKOV-3 cells, 10 ug/ml.
Protocol: as §1
Assay [8] has the same target. Put plainly: FACS, NCI-H322 cells, 10 ug/ml.
Protocol: as §1
Assay [9] has as its target T2, TPP-2305 (hTNFRSF12Aaa28-80) (Human, UniProt Q9NP84 28-80).
T2 construct: monomeric extracellular domain, bought; also called purified recombinant human TWEAKR protein; soluble monomeric TWEAKR
Put plainly: SPR (Biacore T100), IgG captured, TPP-2305 injected, 1:1 model. A general note: SPR reads the build-up and loss of mass on a sensor chip optically.
Protocol: Binding affinities of anti-TWEAKR antibodies were determined by surface plasmon resonance analysis on a Biacore T100 instrument (GE Healthcare Biacore, Inc.). Antibodies were immobilized onto a CM5 sensor chip through an indirect capturing reagent, anti-human IgG(Fc). […] Anti-TWEAKR antibodies were injected at a concentration of 10 μg/ml at 10 μl/min for 10 sec.
Sensorgrams were generated after in-line reference cell correction followed by buffer sample subtraction. The dissociation equilibrium constant (KD) was calculated based on the ratio of association (kₒₙ) and dissociation rated (koff) constants, obtained by fitting sensorgrams with a first order 1:1 binding model.

Assay [10] addresses TPP-1986 (hTNFRSF12Aaa28-80-T33Q-hIgG1-Fc) (human). Put plainly: ELISA, TWEAKR-Fc coated 62 ng/ml, biotin-IgG titrated; + means IC50 1 to 150 pM.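 Note: biotinylated IgG binding to immobilized TWEAKR-Fc muteins, detected with Streptavidin-HRP and Amplex Red, IC50 derived from fitted dose-response curves of twofold serial dilutions.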 For orientation: In an ELISA, binding on a coated surface is turned into a signal by an enzyme label.
Protocol: (§2) To collect dose-response data, the different TWEAKR-Fc muteins were coated with a low concentration (62 ng/ml) in a 384-well Maxisorb ELISA plate and a serial 2fold dilution of biotinylated IgG starting with a concentration of 100 nM was used as soluble binding partner. Detection was done with Streptavidin-HRP and Amplex Red.
(§3) The dose-response data were fitted and IC50s determined.
The target in assay [11] is TPP-1987 (hTNFRSF12Aaa28-80-S40R-hIgG1-Fc) (human). The description is as above.
Protocol: as §2, §3
For assay [12], the target named is TPP-1988 (hTNFRSF12Aaa28-80-M50A-hIgG1-Fc) (human). Described as above.
Protocol: as §2, §3
Assay [13] deals with TPP-2683 (hTNFRSF12Aaa28-80-R56P-hIgG1-Fc) (human). Described as above.
Protocol: as §2, §3
The target in assay [14] is TPP-1989 (hTNFRSF12Aaa28-80-H60K-hIgG1-Fc) (human). Described as above.
Protocol: as §2, §3
Assay [15] deals with TPP-1990 (hTNFRSF12Aaa28-80-L65Q-hIgG1-Fc) (human). The description is as above.
Protocol: as §2, §3
For assay [16], the target named is T3, Trail R3 (TNFRSF10C) Fc fusion protein (Human, UniProt O14798 26-221, limits assumed).
T3 construct: extracellular domain; bought
T3 sequence (looked up): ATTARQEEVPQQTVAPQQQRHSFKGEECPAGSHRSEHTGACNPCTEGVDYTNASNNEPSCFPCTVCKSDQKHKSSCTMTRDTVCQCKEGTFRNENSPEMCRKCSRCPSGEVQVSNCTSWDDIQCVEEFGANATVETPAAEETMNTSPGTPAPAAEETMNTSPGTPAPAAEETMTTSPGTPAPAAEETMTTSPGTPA
Put plainly: ELISA, Fc fusion protein coated at 1 µg/ml, TPP-2090 at 75 nM, Amplex Red.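 Note: binding reported as ELISA signal intensity in Rfu against a panel of TNF receptor superfamily members presented as Fc fusion proteins.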

Assay [17] addresses T4, TROY (TNFRSF19) Fc fusion protein (Human, UniProt Q9NS68 30-170).
T4 construct: extracellular domain; bought
T4 sequence (looked up): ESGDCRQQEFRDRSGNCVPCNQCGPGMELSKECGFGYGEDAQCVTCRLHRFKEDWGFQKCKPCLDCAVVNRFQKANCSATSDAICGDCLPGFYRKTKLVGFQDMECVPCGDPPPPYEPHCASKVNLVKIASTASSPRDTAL
The description is as above.

Assay [18] has as its target T5, TPP-2202 (TWEAKR-ECD-28-80-hIgGFc-His) (human).
T5 construct: dimeric; also called TWEAKR-Fc fusion protein; full ectodomain 28-80
Put plainly: ELISA, TPP-2202 coated at 1 µg/ml, biotinylated IgG at 0.08 µg/ml (open bar) and 0.3 µg/ml (filled bar), Streptavidin-HRP, Amplex Red.
Protocol: (§4) Detection was done with Streptavidin-HRP and Amplex-Red substrate.
(§5) To analyze for binding, 1 μg/ml of the respective dimeric TWEAKR-Fc construct were coated and, 0.3 μg/ml and 0.08 μg/ml of biotinylated IgG were used as soluble binding partner. Detection was done with Streptavidin-HRP and Amplex-Red substrate.

Assay [19] concerns the target T6, TPP-2203 (TWEAKR-ECD-34-68-hIgGFc-His) (human).
T6 construct: dimeric; also called TWEAKR(34-68)-Fc fusion protein; truncated ectodomain 34-68
The assay can be described thus: ELISA, TPP-2203 coated at 1 µg/ml, biotinylated IgG at 0.08 µg/ml (open bar) and 0.3 µg/ml (filled bar), Streptavidin-HRP, Amplex Red.
Protocol: as §4, §5

Assay [20] addresses T7, TPP-599 (HUMAN-TNFRSF12Aaa28-80-hIgG1-Fc) (human).
T7 construct: dimeric; also called human TWEAKR Fc; TWEAKR-Fc
Put plainly: ELISA, TWEAKR-Fc coated 62 ng/ml, biotin-IgG titrated; + means IC50 1 to 150 pM.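 Note: biotinylated IgG binding to immobilized TWEAKR-Fc muteins, detected with Streptavidin-HRP and Amplex Red, IC50 derived from fitted dose-response curves of twofold serial dilutions.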
Protocol: as §2, §3

T5 sequence (chain, as listed by the source limits assumed): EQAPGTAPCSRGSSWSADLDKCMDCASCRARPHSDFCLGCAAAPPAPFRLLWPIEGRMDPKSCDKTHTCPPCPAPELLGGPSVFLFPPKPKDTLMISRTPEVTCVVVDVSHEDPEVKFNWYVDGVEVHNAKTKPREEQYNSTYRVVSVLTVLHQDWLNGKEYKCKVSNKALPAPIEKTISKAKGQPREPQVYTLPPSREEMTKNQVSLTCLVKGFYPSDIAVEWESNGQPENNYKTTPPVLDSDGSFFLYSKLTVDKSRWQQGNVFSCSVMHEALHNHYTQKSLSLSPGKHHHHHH

B1: TPP-2090 (antibody, human IgG1, kappa, V domains shown)
VH: EVQLLESGGGLVQPGGSLRLSCAASGFTFSPYPMIWVRQAPGKGLEWVSYISPSGGSTHYADSVKGRFTISRDNSKNTLYLQMNSLRAEDTAVYYCARGGDTYFDYFDYWGQGTLVTVSS
VL: DIQMTQSPSSLSASVGDRVTITCRASQSISGYLNWYQQKPGKAPKLLIYQASSLQSGVPSRFSGSGSGTDFTLTISSLQPEDFATYYCQQSYTSPFITFGQGTKVEIKR
notes: Human IgG1
Usually Kd stands for the constant that tells how readily two partners part at equilibrium. Low values mean higher affinity, high ones lower affinity. On to B1, for which the “IL-8 release from A375 cells at 100 ug/ml, % of the activation by 300 ng/ml TWEAK ligand” value in assay [1] amounted to 103%. Also, in [2], the “% Inhibition of proliferation, 786-O cells, 96h, 100 ug/ml” value is 71%. The “% Inhibition of proliferation, A253 cells, 72h, 100 ug/ml” value in assay [2] was determined as 99%. Also, the “% Inhibition of proliferation, HT-29 cells, 24h, 100 ug/ml” value in assay [2] was greater than 100%. Further, the “GeoMean of Fluorescence minus GeoMean with the secondary antibody only” value in assay [3] was 561; in assay [4], 1420; in [5], 2420; in assay [6], 20300; in [7] it was 2870; in assay [8] it was 291. Moreover, in assay [9], the Kd is 12.4 nM. In addition, the binding result in assay [10], in assay [11], in assay [12], in assay [13], in assay [14] and in assay [15] was “binds” each time. Moreover, the binding result in assay [16] is given as “no binding (tested: 75 nM)”; in assay [17] it was “no binding (tested: 75 nM)”; in assay [18], “binds”; in assay [19], “binds”.

B2: P4A8(TPP-1324) (antibody, human IgG1, kappa, V domains shown)
VH: QVQLVQSGAEVKKPGASVKVSCKGSGYTFTDYGMHWVRQAPGQGLEWMGVISTYNGYTNYNQKFKGRVTMTVDKSTSTAYMELRSLRSDDTAVYYCARAYYGNLYYAMDYWGQGTLVTVSS
VL: DIVLTQSPASLAVSLGQRATISCRASKSVSTSSYSYMHWYQQKPGQPPKLLIKYASNLESGVPARFSGSGSGTDFSLNIHPMEEDDTAMYFCQHSRELPFTFGGGTKLEIKR
notes: Human IgG1; variable domains from WO2009/140177 with constant region added
A word on the koff: it is the first-order rate constant of dissociation. A low value points to slow dissociation. In general, kon refers to the rate constant with which the complex forms. A high value points to fast association. Take B2: the “IL-8 release from A375 cells at 100 ug/ml, % of the activation by 300 ng/ml TWEAK ligand” value in [1] was determined as 29%. Moreover, in assay [2], the “% Inhibition of proliferation, 786-O cells, 96h, 100 ug/ml” value turned out to be 29%. Besides, in [2], the “% Inhibition of proliferation, A253 cells, 72h, 100 ug/ml” value is 37%. Moreover, the “% Inhibition of proliferation, HT-29 cells, 24h, 100 ug/ml” value in assay [2] is -10%. In assay [2], the “% Inhibition of proliferation, WiDr cells, 96h, 100 ug/ml” value was 4%. In addition, the “GeoMean of Fluorescence minus GeoMean with the secondary antibody only” value in assay [3] stood at 1580; in assay [4], 3670; in assay [5] it was 5920; in [6], 30200; in assay [7], 5970; in assay [8] it was 978. In [9], the dissociation constant Kd came out at 2.3 nM. The molecule further came in with a koff in assay [9] of 0.0027 s⁻¹. Also, in assay [9], the kon is 1.2e+06 M⁻¹ s⁻¹. Further, the binding result in assay [20], in assay [10], in [11], in assay [12], in assay [13] and in assay [14] was “binds” throughout. In addition, the binding result in assay [15] and in assay [18] was “binds” throughout.
